Data taken from patent US20220184120A1 (MINERVA BIOTECHNOLOGIES, published 2022).

Experiments:
[1] = biological target: T1, C-10 peptide (PSMGFR minus 10 amino acids from the C-terminus); test: ELISA
T1 construct: also called C-10 PSMGFR; PSMGFR C-10
T1 peptide: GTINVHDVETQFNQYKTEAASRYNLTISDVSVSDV

[2] = biological target: T2, PSMGFR peptide (Primary Sequence of the MUC1 Growth Factor Receptor); test: ELISA (FIG. 2C)
T2 construct: synthetic peptide immobilised on ELISA plates; also called MUC1* peptide; MUC1* extra cellular domain peptide
T2 peptide: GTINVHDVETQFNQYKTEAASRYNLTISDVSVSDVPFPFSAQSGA

[3] = biological target: T3, N+20/C-27 peptide (20 amino acids added onto the N-terminus and 27 deleted from the C-terminus of PSMGFR); test: ELISA (FIG. 63)
T3 peptide: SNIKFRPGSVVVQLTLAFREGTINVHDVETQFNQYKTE
Procedure: (§1) ELISA assays were performed to determine if, in addition to recognizing their immunizing peptide, they recognized PSMGFR, N−10 or C−10. In addition, they were tested for their ability to bind to N+20/C−27, N+9/C−9. We first did the ELISA assay on our set of reference antibodies, MNC2, MNE6, which we know are cancer-specific plus MNC3, which we know recognizes stem cells and progenitor cells (FIG. 63A-63B). None of the reference antibodies bound to the N+20/C−27 peptide. MNC2 and MNE6 cannot bind to PSMGFR peptides with 27, 10 or 9 C-terminal deletions, however, MNC3 binds to C−10 and to N+9/C−9 peptides.

[4] = biological target: T4, N+9/C-9 peptide (9 amino acids added onto the N-terminus and 9 deleted from the C-terminus of PSMGFR); test: ELISA (FIG. 63A)
T4 peptide: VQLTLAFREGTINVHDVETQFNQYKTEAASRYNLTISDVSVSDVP
Procedure: as §1

[5] = biological target: T5, N-10 peptide (PSMGFR minus 10 amino acids from the N-terminus); test: ELISA (FIG. 2B-2C)
T5 construct: also called N-10 PSMGFR; PSMGFR N-10
T5 peptide: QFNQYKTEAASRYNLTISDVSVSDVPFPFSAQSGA

binding result [1]: no binding
binding result [2]: binds
binding result [3]: no binding
binding result [4]: no binding (tested: 10 ug/mL or 1 ug/mL)
binding result [5]: binds
B1: MN-E6 mouse monoclonal anti-MUC1* antibody (antibody, V domains shown)
VH: EVKVVESGGDLVKPGGSLKLSCVVSGFTFSRYGMSWVRQTPGKRLEWVATISGGGTYIYYPDSVKGRFTISRDNAKNTLYLQMSSLKSEDTAMYHCTRDNYGRNYDYGMDYWGQGTSVTVSS
VL: QIVLTQSPAIMSASPGEEVTLTCSATSSVSYIHWFQQRPGTSPKLWIYSTSNLASGVPVRFSGSGYGTSYSLTISRMEAEDAATYYCQQRSSSPFTFGSGTKLEIK
notes: mouse monoclonal raised against PSMGFR; also called Min-E6
